From patent US20260109776A1 (Amgen, published 2026) come the findings set out here.

Assay [1] has as its target T1, huCD40(1-193) (human, UniProt P25942 21-193).
T1 construct: Soluble form used in Octet; also called human CD40; soluble human CD40
As to the kind of experiment: Octet, soluble antigen. (In BLI a coated tip is dipped into the sample, and binding shifts an interference pattern.)

Assay [2] concerns the target T2, cynoCD40(1-193) (cynomolgus monkey, UniProt P25942 21-193 (human entry)).
T2 construct: Soluble form used in Octet; also called cynomolgus monkey CD40
T2 chain: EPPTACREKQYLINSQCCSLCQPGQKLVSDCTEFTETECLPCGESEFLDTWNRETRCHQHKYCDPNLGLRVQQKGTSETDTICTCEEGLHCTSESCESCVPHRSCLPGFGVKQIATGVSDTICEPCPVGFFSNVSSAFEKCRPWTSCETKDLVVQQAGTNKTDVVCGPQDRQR
As to the kind of experiment: Octet, soluble antigen.

Assay [3] has as its target huMSLN(296-598) (human, UniProt Q13421 296-598). Briefly: Octet, soluble antigen.
Target sequence in this assay (Q13421 other isoform, or with tags, fused parts or gaps): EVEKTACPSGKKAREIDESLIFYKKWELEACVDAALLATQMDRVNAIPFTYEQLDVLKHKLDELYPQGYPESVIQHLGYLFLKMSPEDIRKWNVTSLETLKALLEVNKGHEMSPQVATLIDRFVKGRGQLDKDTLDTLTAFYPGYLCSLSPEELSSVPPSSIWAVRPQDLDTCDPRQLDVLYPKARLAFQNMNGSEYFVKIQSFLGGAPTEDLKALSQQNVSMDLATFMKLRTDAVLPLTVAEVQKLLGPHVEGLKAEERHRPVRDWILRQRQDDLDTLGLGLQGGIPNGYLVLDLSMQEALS
Assay [4] has as its target human CD40 on purified human B cells (human, UniProt P25942 21-277). As to the kind of experiment: cell-based or functional assay.
The target in assay [5] is T3, soluble recombinant cynomolgus monkey mesothelin (cynomolgus monkey).
T3 chain: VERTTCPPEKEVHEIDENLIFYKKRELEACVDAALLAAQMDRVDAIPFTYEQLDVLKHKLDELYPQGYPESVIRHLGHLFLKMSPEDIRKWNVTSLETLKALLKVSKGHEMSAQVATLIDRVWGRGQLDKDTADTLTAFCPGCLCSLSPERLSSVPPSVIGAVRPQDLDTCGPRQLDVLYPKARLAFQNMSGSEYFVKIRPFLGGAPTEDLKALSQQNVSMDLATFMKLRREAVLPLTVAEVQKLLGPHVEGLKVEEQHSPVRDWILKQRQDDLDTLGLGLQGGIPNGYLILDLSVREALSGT
Briefly: Octet, soluble recombinant cyno MSLN.

Assay [6] deals with T4, huCD40(1-193) (human, UniProt P25942 21-193).
T4 construct: also called soluble human CD40
As to the kind of experiment: Octet. The procedure:
(§1) A panel of mesothelin×CD40 bispecific antibodies were generated in the IgG-scFv format (Table 13) and evaluated for binding to soluble forms of human and cynomolgus monkey CD40 and human and cynomolgus monkey mesothelin using the Octet assay (Table 14). Association rate (Kon), disassociation rate (Kdis), and equilibrium binding constant (KD) were calculated. […] These bispecific antibodies were next evaluated for their ability to induce mesothelin-dependent activation of human B cells. CHO cells expressing human mesothelin were seeded into a 96 well plate. The next day varying concentrations of the mesothelin×CD40 IgG-scFv antibodies were added to the wells along with purified human B cells and the plates were incubated for an additional 48 hours. Upregulation of CD86, a marker of CD40-mediated B cell activation, was quantified on B cells by flow cytometry.

In assay [7] the target is T5, cynoCD40(1-193) (cynomolgus monkey, UniProt P25942 21-193 (human entry)).
T5 construct: also called soluble cynomolgus monkey CD40
T5 chain: T2 chain
Briefly: Octet. On the procedure: as §1

Assay [8] deals with T6, huMSLN(296-598) (human, UniProt Q13421 296-598).
T6 construct: also called soluble human mesothelin
Briefly: Octet. The procedure: as §1
T6 sequence (Q13421 other isoform, or with tags, fused parts or gaps): as the sequence (Q13421 other isoform, or with tags, fused parts or gaps) above

Assay [9] deals with T7, cynoMSLN(296-598) (cynomolgus monkey).
T7 chain: T3 chain
As to the kind of experiment: Octet. The procedure: as §1

Assay [10] has as its target T8, human CD40 (human, UniProt P25942 21-277). As to the kind of experiment: cell-based or functional assay.
The target in assay [11] is T8, human CD40. As to the kind of experiment: cell-based or functional assay. This is another data set of the same source.

Like-named read-outs stand apart in the source and are kept apart here.

B1: Anti-CD40xMSLN IgG-Fab molecule 5968-1 (bispecific antibody)
chain 1: QVQLVESGGGLVKPGGSLRLSCAASGFTFSDYYMSWIRQAPGKGLEWISYISSSESIIYYVDSVKGRFTISRDNAKNSLYLQMNSLRAEDTAVYYCARDVGSHFDYWGQGTLVTVSS
chain 2: DIQMTQSPSSVSASVGDRVTITCRASQDISRWLAWYQQKPGKAPKLLISAASRLQSGVPSRFSGSGSGTDFTLTISSLQPEDFAIYYCQQAKSFPRTFGQGTKVEIKR
chain 3: EVQLLESGGGLVQPGGSLRLSCAASGFTFSRNAMSWVRQAPGKGLEWVSATGGSGISTYYADSVKGRFTISRDNSKNTLYLQMNSLRAEDTAVYYCARGYSNSWWYFDYWGQGTLVTVSS
chain 4: QSALTQPASVSGSPGQSITISCTGTSSDVGNYNLVSWYQQHPGKAPKLMIFEVNQRPSGVSNRFSGSKSGTTASLTISGLQAADEADYFCCSYTTSSTYVIFGGGTKLTVLGQPKAAPSVTLFPPSSEELQANKATLVCLISDFYPGAVTVAWKADSSPVKAGVETTTPSKQSNNKYAASSYLSLTPEQWKSHRSYSCQVTHEGSTVEKTVAPTECS
For orientation: Kd means the concentration at which binding is half-saturated. For orientation: koff means a measure of how fast the partners let go of each other. The kon is the second-order rate constant of association. In assay [1], B1 displayed a Kd of 0.4 nM, a koff of 0.000256 s⁻¹ and a kon of 650000 M⁻¹ s⁻¹. In [2], this molecule displayed a Kd of 0.7 nM, a koff of 0.000414 s⁻¹ and a kon of 598000 M⁻¹ s⁻¹. In [3], this molecule came in with a Kd of 0.3 nM, a koff of 0.000353 s⁻¹ and a kon of 1.03e+06 M⁻¹ s⁻¹. In addition, the “EC50 (nM), CD86 upregulation on human B cells in the presence of CHO cells expressing human mesothelin” value (“EC50 … of CHO cells expressing human mesothelin” below) in assay [4] was determined as 0.004 nM.

B2: Anti-CD40xMSLN IgG-Fab molecule 5973-1 (bispecific antibody)
chain 1: B1 chain 1
chain 2: B1 chain 2
chain 3: QVQLVESGGGLVKPGGSLRLSCAASEFTFSDYYMSWIRQAPGKGLEWVSYISRSGDTIYYADSVKGRFTISRDNAKNSLYLQMNGLRAEDTAVYYCARDLAAGATGGLDCWGQGTLVTVSS
chain 4: SYELTQPPSVSVSPGQTASITCSGERLGNKYICWYQQKPGQSPVLVIYQDFKRPSGIPERFSGSNSGITATLTISGTQAMDEADYYCQAWDSRTVVFGGGTKLTVLG
As for B2, in assay [1], the Kd was found to be 0.6 nM, the koff came to 0.000325 s⁻¹ and the kon was determined as 541000 M⁻¹ s⁻¹. Further, in [2], binding was put at a Kd of 0.6 nM, the koff came out at 0.000404 s⁻¹ and the kon turned out to be 669000 M⁻¹ s⁻¹. In assay [3], this molecule registered a Kd of 0.5 nM, a koff of 0.000223 s⁻¹ and a kon of 451000 M⁻¹ s⁻¹. The “EC50 … of CHO cells expressing human mesothelin” value in assay [4] worked out at 0.006 nM.

B3: Anti-CD40xMSLN IgG-Fab molecule 5972-1 (bispecific antibody)
chain 1: B1 chain 1
chain 2: B1 chain 2
chain 3: QVQLQQSGPGLVKPSQTLSLTCAISGDSVSSSRTAWNWIRQSPSRGLEWLGRTYYRSKWYHDYSVSVKSRITIDPDTSKNQFSLQLNSVTPEDTAVYYCARGAAPFDYWGQGTLVTVSS
chain 4: EIVLTQSPGTLSLSPGERATLSCRASQSVSSNYLAWYQQKPGQAPRALIYAASNRAAGISDRFSGSGSGTDFTLTISRLEPEDFAVYFCQQYGSSPLTFGGGTKVEIKR
Consider B3, for which the Kd in assay [1] was 4 nM; in [2], 1.7 nM; in [3] it was 0.5 nM. For the same molecule, the koff stood at 0.000531 s⁻¹ in assay [1], 0.000137 s⁻¹ in assay [2] and 0.00027 s⁻¹ in assay [3]. For the same molecule, the kon in assay [1] came out at 134000 M⁻¹ s⁻¹; in [2], 80600 M⁻¹ s⁻¹; in assay [3], 568000 M⁻¹ s⁻¹. Further, the “EC50 … of CHO cells expressing human mesothelin” value in assay [4] came out at 0.007 nM.

B4: Anti-CD40xMSLN IgG-Fab molecule 5987-1 (bispecific antibody)
chain 1: QVQLVQSGAEVTKPGASVKVSCKASGYTFAGYYMHWVRQAPGQGLEWMGWINPHSGGTNYAQKFQDRVTMTRDTSINTAYMELSRLRSDDTAVYYCARERISMVRGVGHNWFAPWGQGTLVTVSS
chain 2: DIQMTQSPSSLSASVGDRVTITCRASQDISNNLAWFQQKPGKPPKSLMYAASSLHSGVPSTFSGSGSGTDFTFTISSLQPEDFATYYCQQYNSYPLTFGGGTKVEIRR
chain 3: B1 chain 1
chain 4: B1 chain 2
As for B4, the Kd in assay [1] came to 0.7 nM; in [2] it was 0.7 nM; in assay [3], 1 nM. The koff was 0.000423 s⁻¹ in assay [1], 0.000526 s⁻¹ in assay [2] and 0.000439 s⁻¹ in [3]. The figures for the kon in assay [1], in assay [2] and in [3] were 600000 M⁻¹ s⁻¹, 752000 M⁻¹ s⁻¹ and 424000 M⁻¹ s⁻¹, respectively. Moreover, the “EC50 … of CHO cells expressing human mesothelin” value in [4] came out at 0.003 nM.

B5: Anti-CD40xMSLN IgG-Fab molecule 5970-1 (bispecific antibody)
chain 1: B1 chain 1
chain 2: B1 chain 2
chain 3: QVQLVESGGGVVQPGRSLRLSCAASGFTFSSHGMHWVRQPPGKGLEWVAVIWYDGSNEYYGDSVKGRFTISRDNSKNTLYLQMNSLRVEDTAVYYCTRGGGHWNYEGHYYGMDVWGQGTTVTVSS
chain 4: QAVPTQPSSLSASPGASASLTCTLRSGINVGSSRIYWYQQKPGSPPQFLLRYTSDSDKLQGSGVPSRFSGSKDASANAGLLLISGLQSEDEADYYCMIWHSSAVVFGGGTKLTVLG
For B5, the Kd in [1] was 1.6 nM; in assay [2], 1.3 nM; in assay [3] it was 0.3 nM. The koff amounted to 0.000395 s⁻¹ in assay [1], 0.000208 s⁻¹ in assay [2] and 0.000258 s⁻¹ in assay [3]. Moreover, the kon in [1] was 245000 M⁻¹ s⁻¹; in [2], 163000 M⁻¹ s⁻¹; in assay [3], 774000 M⁻¹ s⁻¹. Moreover, in assay [4], the “EC50 … of CHO cells expressing human mesothelin” value is 0.005 nM.

B6: anti-mesothelin antibody 7G11 (antibody, V domains shown)
VH: EVQLVESGGGLIQPGGSLRLSCAVSGFTVSSKFMTWVRQAPGKGLEWVSVIYSGGKTYYADSVKGRFTISRDNSKNTLYLQMNSLRAEDTAVYYCARDSGGWGYFDYWGQGTLVTVSS
VL: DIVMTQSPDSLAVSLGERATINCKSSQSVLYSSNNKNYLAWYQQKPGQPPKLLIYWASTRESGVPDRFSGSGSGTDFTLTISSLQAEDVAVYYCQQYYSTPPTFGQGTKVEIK
With B6, in assay [5], the Kd came to 6.4 nM, the koff stood at 0.00188 s⁻¹ and the kon was found to be 294000 M⁻¹ s⁻¹.

B7: 6052-2 (bispecific antibody)
heavy: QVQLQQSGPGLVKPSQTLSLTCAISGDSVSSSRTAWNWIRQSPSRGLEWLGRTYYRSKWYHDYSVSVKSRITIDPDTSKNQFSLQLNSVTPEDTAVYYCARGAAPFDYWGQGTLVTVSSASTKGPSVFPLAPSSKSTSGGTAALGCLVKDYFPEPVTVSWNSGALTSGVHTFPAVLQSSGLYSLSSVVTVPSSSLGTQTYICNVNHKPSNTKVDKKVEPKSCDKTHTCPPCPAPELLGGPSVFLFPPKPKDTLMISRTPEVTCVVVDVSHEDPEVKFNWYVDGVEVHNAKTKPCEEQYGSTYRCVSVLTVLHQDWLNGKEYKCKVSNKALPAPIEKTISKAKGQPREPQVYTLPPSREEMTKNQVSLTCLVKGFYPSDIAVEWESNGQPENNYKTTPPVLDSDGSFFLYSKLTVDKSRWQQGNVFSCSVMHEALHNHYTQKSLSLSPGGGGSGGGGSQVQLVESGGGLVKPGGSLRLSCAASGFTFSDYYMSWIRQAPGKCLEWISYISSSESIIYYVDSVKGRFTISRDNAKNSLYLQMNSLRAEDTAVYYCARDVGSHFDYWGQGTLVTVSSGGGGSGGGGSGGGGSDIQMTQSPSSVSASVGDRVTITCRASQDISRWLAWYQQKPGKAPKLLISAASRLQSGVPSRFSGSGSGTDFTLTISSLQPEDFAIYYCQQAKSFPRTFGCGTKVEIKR
light: EIVLTQSPGTLSLSPGERATLSCRASQSVSSNYLAWYQQKPGQAPRALIYAASNRAAGISDRFSGSGSGTDFTLTISRLEPEDFAVYFCQQYGSSPLTFGGGTKVEIKRTVAAPSVFIFPPSDEQLKSGTASVVCLLNNFYPREAKVQWKVDNALQSGNSQESVTEQDSKDSTYSLSSTLTLSKADYEKHKVYACEVTHQGLSSPVTKSFNRGEC
notes: IgG-scFv: IgG (CD40) 36F3, scFv (MSLN) 6F4; also called 6052-3
In the case of B7, the Kd is 2.5 nM in assay [6], 3.3 nM in [7], 0.7 nM in assay [8] and 19 nM in [9]. In addition, the koff amounted to 0.000556 s⁻¹ in assay [6], 0.00035 s⁻¹ in assay [7], 0.000533 s⁻¹ in assay [8] and 0.00519 s⁻¹ in [9]. For the same molecule, the kon was found to be 218000 M⁻¹ s⁻¹ in [6], 105000 M⁻¹ s⁻¹ in assay [7], 713000 M⁻¹ s⁻¹ in [8] and 269000 M⁻¹ s⁻¹ in [9]. The “EC50 (nM), CD86 upregulation on human B cells with huMSLN-CHO cells” value in assay [10] worked out at 0.00316 nM; in assay [11], 0.00445 nM.
